Assay results as given in PMC4270374.

Substrate: O=c1ccn([C@@H]2O[C@H](COP(=O)(O)OP(=O)(O)O[C@H]3O[C@@H]([C@H](O)CO)[C@H](O)[C@H]3O)[C@@H](O)[C@H]2O)c(=O)[nH]1
Test: purified protein
[1] = 25 mM HEPES, 125 mM NaCl, 20 mM dithionite, pH 7.5, 37 °C

B1: MtUGM (Mycobacterium tuberculosis H37Rv) (protein)
chain: MQPMTARFDLFVVGSGFFGLTIAERVATQLDKRVLVLERRPHIGGNAYSEAEPQTGIEVHKYGAHLFHTSNKRVWDYVRQFTDFTDYRHRVFAMHNGQAYQFPMGLGLVSQFFGKYFTPEQARQLIAEQAAEIDTADAQNLEEKAISLIGRPLYEAFVKGYTAKQWQTDPKELPAANITRLPVRYTFDNRYFSDTYEGLPTDGYTAWLQNMAADHRIEVRLNTDWFDVRGQLRPGSPAAPVVYTGPLDRYFDYAEGRLGWRTLDFEVEVLPIGDFQGTAVMNYNDLDVPYTRIHEFRHFHPERDYPTDKTVIMREYSRFAEDDDEPYYPINTEADRALLATYRARAKSETASSKVLFGGRLGTYQYLDMHMAIASALNMYDNVLAPHLRDGVPLLQDGA
B1 was tested, and the Km (pH 7.5, 37.0 °C) was 78 ± 16 µM and the kcat/Km (pH 7.5, 37.0 °C) was 910000 ± 150000 M⁻¹ s⁻¹.

B2: AfUGM (wild-type) (Aspergillus fumigatus) (protein)
chain: MTHPDISVDVLVIGAGPTGLGAAKRLNQIDGPSWMIVDSNETPGGLASTDVTPEGFLYDVGGHVIFSHYKYFDDCLDEALPKEDDWYTHQRISYVRCQGQWVPYPFQNNISMLPKEEQVKCIDGMIDAALEARVANTKPKTFDEWIVRMMGTGIADLFMRPYNFKVWAVPTTKMQCAWLGERVAAPNLKAVTTNVILGKTAGNWGPNATFRFPARGGTGGIWIAVANTLPKEKTRFGEKGKVTKVNANNKTVTLQDGTTIGYKKLVSTMAVDFLAEAMNDQELVGLTKQLFYSSTHVIGVGVRGSRPERIGDKCWLYFPEDNCPFYRATIFSNYSPYNQPEASKKLPTMQLADGSRPQSTEAKEGPYWSIMLEVSESSMKPVNQETILADCIQGLVNTEMLKPTDEIVSTYHRRFDHGYPTPTLEREGALTQILPKLQDKDIWSRGRFGSWRYEVGNQDHSFMLGVEAVDNIVNGAVELTLNYPDFVNGRQNTERRLVDGAQVFAKSKAQ
With B2 the Km [1] was 110 ± 15 µM, the kcat [1] was 72 ± 4 s⁻¹ and the kcat/Km [1] was 650000 ± 90000 M⁻¹ s⁻¹.
